The values below come from patent publication US20230381112A1, “Compositions and Methods of Manufacturing Amphiphilic Block Copolymers that Form Nanoparticles in Situ” (Vaccuitech North America, Inc., priority 2020, published 2023).

Data set [1] deals with human monocyte cells (THP1). The following applies: 100 μM.
Protocol: The cellular viability of retinal pigmented epithelial like cells (ARPE19) and monocyte like cells (THP1) were assessed following exposure to thermo-responsive polymer at physiologically relevant concentrations.
THP1 cells were grown in vitro in cell growth medium and exposed to thermo-responsive polymer micelle that was resuspended in cell growth medium at the concentrations specified up to 20 mg/mL. […] Cell viability was assessed using Promega CellTiter 96® Non-Radioactive Cell Proliferation Assay (MTT).
For another data set, the system named is NF-κB. The data set is described as follows: Innate immune stimulation: NF-κB activation in THP1 NF-κB SEAP reporter monocytes. It counts as cell-based, human. Conditions: polymer up to 20 mg/mL in culture medium.
Data set [2] is described as follows: DLS temperature sweep in PBS: hydrodynamic diameter (DH), transition temperature (Ttr), solubility/aggregation. The following applies: for Ttr: drug conjugate polymers; for Ttr / DH^20° C. / DH^37° C.: PBS at 0.5 mg/mL; for DH^20° C.: hydrodynamic diameter at 20° C.; for DH^37° C.: hydrodynamic diameter at 37° C. It counts as physicochemical. An excerpt: Temperature-responsive: Refers to changes in properties of a material with changes in temperature. A material may be described as temperature-responsive if the properties of the material change with respect to changes in temperature. Temperature-responsive polymers are polymers that experience a change in physical properties in response to temperature, such as a change in solubility with changes temperature, which may be described by a lower critical solution temperature (LCST) or upper critical solution temperature (UCST). Preferred embodiments of the temperature-responsive polymers described herein have reduced solubility at elevated temperatures, which may be described by an LCST or transition temperature (Ttr), if the LCST is unknown. Transitions temperatures described herein are experimentally determined by dynamic light scattering or by turbidity, wherein particle size (or light scattering intensity) or absorbance are plotted against temperature to produce a sigmoidal curve. The transition temperature as used herein is the temperature (value on the x-axis) at which the y-value is 50% the maximum value of the sigmoidal curve. Temperature-responsive monomers are monomers that form temperature-responsive polymers. […] Note: temperature-responsive monomers are defined herein as a type of hydrophobic monomer that is hydrophobic at certain temperatures.
Hydrodynamic behavior, thermo-responsiveness, and solubility under aqueous conditions. Prepared polymers and control materials were characterized for nanoparticle hydrodynamic diameter by dynamic light scattering (DLS), thermo-responsivity and overall solubility in PBS.

For data set [3] the following is noted: polymers of temperature-responsive monomers; cited from earlier work.
The nature of data set [4]: Concentration-dependent hydrodynamic behavior by DLS in PBS (0.8 to 200 mg/mL, 20-37° C.). Conditions: result in words; 5 mg/mL vs 200 mg/mL in PBS.
Protocol: Unless otherwise indicated, the hydrodynamic diameter (DH), also referred to as simply the diameter or as the number average diameter or number mean diameter, of the polymers and copolymers were measured using dynamic light scattering (DLS) at a scattering angle θ=90° using a Zetasizer Ultra (Malvern Panalytical, Malvern, England) equipped with a 633 nm laser, capillary cell (ZSU1002) and ZS Xplorer software. […] For measurements presented, number mean diameter was used for assessment. […] For transition temperature (Ttr) characterization, DLS measurements were performed for temperature sweeps over a maximum range of 4-50° C. at a concentration of 0.5 mg/mL, 5 mg/mL or 200 mg/mL in PBS (150 mM NaCl, pH 7.4). At each step, measurements were performed after reaching steady-state temperature conditions. Characterization of the polymer chain conformational changes was evaluated from the temperature dependence of the hydrodynamic diameter (DH); the Ttr value was determined from the intersection point of two lines formed by the linear regression of a lower horizontal asymptote and a vertical section of the S-shaped curve (sigmoidal curve) fit.
For data set [5] the following is noted: intravitreal injection; cited from earlier work.

Entries after “also recorded” stand apart in the source; their conditions may differ. No end group written: not given here.

Regarding `CCCCc1nc2c(N)nc3ccccc3c2n1CCCCN` [Compound 34, 1-(4-aminobutyl)-2-butyl-1H-imidazo[4,5-c]quinolin-4-amine], the “viability of THP1 cells” value in data set [1] is listed as 10-20%. Further, in the data set on NF-κB, the NF-κB activation entry is “strong NF-κB response”.

“CN-p[(NIPMAM)f1-co-(BnMAM)f2]-b-p(HPMA)a-pip-diABZI [Compound 290]”: in data set [2], the Ttr was 31 °C, the “DH^20° C.” value is 15.3 nm and the “DH^37° C.” value amounted to 25.3 nm.

Regarding “CN-p[(NIPMAM)f1-co-(BnMAM)f2]-b-p(HPMA)a-PEG4-Ova [Compound 293]”, in data set [2], the Ttr stood at 29 °C, the “DH^20° C.” value was determined as 5.7 nm and the “DH^37° C.” value is 41.1 nm.

Regarding “Val-Pro-Gly-Val-Gly (SEQ ID NO: 3) derived polymethacrylate: polymethacrylate derived from the pentapeptide, Class IV of Table 1 (VPGVG; also: polymethacrylate backbone with pendant peptide)”, the “LCST or Ttr” value in data set [3] is 15-55 °C.

Consider “CN-p[(NIPMAM)f1-co-(BnMAM)f2]-b-p(HPMA)a-PEG4-Ova [Compound 292]”, for which, in data set [2], the Ttr is 32 °C, the “DH^20° C.” value turned out to be 6.1 nm and the “DH^37° C.” value worked out at 36.5 nm.

“P(Val-Pro-Gly-Val-Gly)(SEQ ID NO: 3) (VPGVG; also: polymer of peptide-derived monomer)”: the “LCST or Ttr” value in data set [3] was 27 °C.

As for “CN-p[(NIPMAM)f1-co-(BnMAM)f2]-b-p(HPMA)a-PEG4-Ova [Compound 291]”, in data set [2], the Ttr amounted to 28 °C, the “DH^20° C.” value stood at 7.4 nm and the “DH^37° C.” value stood at 40.4 nm. For the same compound, the “thermo-responsive and micelle-forming behavior” value in data set [2] (result in words, DLS in PBS) is recorded as “retains temperature responsiveness”. For the same compound, in data set [4], the concentration-responsive micellization result was “retain concentration responsive micellization properties; also recorded: similarly demonstrated”.

“Ranibizumab: Fab molecule used for intravitreal injections”: in data set [5], the vitreal half-life is 76.8 h.
